Experimental data from the supplement of paper PMC12042874.
± gives the uncertainty stated by the source.

Experiment: amyloid nucleation score (Sup35N fusion, yeast selection) (log enrichment); library NNK3; higher = more nucleation; inactive = no reads after selection
Summary of the method: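 Growth for 7 days at 30°C on medium lacking adenine and uracil followed a 24-hour induction with 100 μM copper sulfate of psi-negative yeast expressing peptides of 20 random codons fused to Sup35N. Input and output plasmid inserts were sequenced with Illumina, and sequences with under 100 input reads were excluded. Nucleation score is the DiMSum log enrichment of output over input reads, centred on the mode score of non-aggregating sequences.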
With ITLLYALVLFFTWNVSG the amyloid nucleation score was “inactive”. In the case of ITNYLWGGKGHRNKVLSNSC, the amyloid nucleation score is reported as “inactive”. For ITSCRWVALKYLWSVFSLLI, the amyloid nucleation score was “inactive”. With ITSGFDVEKCGNVNLSWEVW the amyloid nucleation score was “inactive”. For ITTVRAYEALTWNMFWVQCV, the amyloid nucleation score was “inactive”. For ITVCYMNKIWLK, the amyloid nucleation score was “inactive”. With IVCMLQFEVVVLHACRFESK the amyloid nucleation score was “inactive”. For IVDGWR, the amyloid nucleation score was “inactive”. In the case of IVEHIFDRGVSLEVMMMCYR, the amyloid nucleation score is reported as “inactive”. IVFMRLRMRVICPLCSVRLS gave an amyloid nucleation score of 0.385 ± 0.2. In the case of IVGLDLCVHWQYLQVRLYII, the amyloid nucleation score is reported as “inactive”. With IVGYERATFVLRSYRFEKVS the amyloid nucleation score was “inactive”. For IVNLL, the amyloid nucleation score was “inactive”. For IVTLNYQLMYKMPKLLWSSN, the amyloid nucleation score was “inactive”. IVWPIIRAHS gave an amyloid nucleation score of -0.313 ± 0.93. With IVYLRKPCYNW the amyloid nucleation score was “inactive”. For IWIGFPFLSSSGGPMYPL, the amyloid nucleation score was “inactive”. For IWLTWTSEYCTIFGFVLPVV, the amyloid nucleation score was “inactive”. Substance IWNLWFRTFCT has an amyloid nucleation score of 0.519 ± 0.25. In the case of IWPVESWLWHVLWYLVFKI, the amyloid nucleation score is reported as 0.49 ± 0.17. With IWPWSFALIMS the amyloid nucleation score was “inactive”. In the case of IWTDDWFFVAVSDGKVSRLV, the amyloid nucleation score is reported as “inactive”. With IYALDNHGTCGRGHAFYNMV the amyloid nucleation score was “inactive”. In the case of IYAQELLSVANLLRFL, the amyloid nucleation score is reported as “inactive”. For IYAVSCVCVGIYGTIRLTSG, the amyloid nucleation score was 0.017 ± 0.23. With IYCKVVALKRFHWMEAYA the amyloid nucleation score was “inactive”. In the case of IYEVVMVCISESLFLLMVKG, the amyloid nucleation score is reported as “inactive”. For IYKSQMLEFVEVVRSYMPVQ, the amyloid nucleation score was “inactive”. In the case of IYLLYNPCFRMRYLFCMLRG, the amyloid nucleation score is reported as “inactive”. For IYLMVFNCMFEVTFRLSVES, the amyloid nucleation score was “inactive”. With IYMRRESGVLGEQ the amyloid nucleation score was “inactive”. Substance IYPLAKFSLHLVYTDRVSIF has an amyloid nucleation score of 0.352 ± 0.19. With IYPLV the amyloid nucleation score was “inactive”. Work on IYSALYLYRTPKSVYQVTQS yielded an amyloid nucleation score of -0.575 ± 1. With IYVQNSTANKR the amyloid nucleation score was “inactive”. With IYVRLMSFH the amyloid nucleation score was 0.452 ± 0.15. With IYVVACGSR the amyloid nucleation score was “inactive”. With IYYNHVVI the amyloid nucleation score was “inactive”. Substance IYYPHTFIWDFVDEGVAPHY has an amyloid nucleation score of 1.56 ± 0.12. With KAGVRKRKAER the amyloid nucleation score was “inactive”. For KANDFTVFLRRVCLLNRVNA, the amyloid nucleation score was “inactive”. KAQAFLWPVPDIQ showed an amyloid nucleation score of -0.571 ± 1.9. For KCRVG, the amyloid nucleation score was “inactive”. For KCSRDRWQIVKMFMRMTVAI, the amyloid nucleation score was “inactive”. In the case of KDELCH, the amyloid nucleation score is reported as 1.81 ± 0.11. For KDIFYVAGDR, the amyloid nucleation score was “inactive”. For KDLDGVLFGNANWKIICEL, the amyloid nucleation score was “inactive”. For KDMIYSHDKLKFQKKNKHMQ, the amyloid nucleation score was “inactive”. In the case of KDVRVWRLFRLD, the amyloid nucleation score is reported as “inactive”. In the case of KDVYCRGVGG, the amyloid nucleation score is reported as “inactive”. For KEAVFIFSTHSGFLALFCMM, the amyloid nucleation score was “inactive”. With KEDCGGQVNKTSGASVSSLC the amyloid nucleation score was “inactive”. KEVMFR showed an amyloid nucleation score of 1.64 ± 0.12. For KFDGLYNSFTVMNFAIMVYE, the amyloid nucleation score was 1.65 ± 0.12. In the case of KFGEAWIIPRDRVMEVFEW, the amyloid nucleation score is reported as “inactive”. With KFTMTPWDPLCLCVRSDIDL the amyloid nucleation score was “inactive”. Work on KGAFEMRG yielded an amyloid nucleation score of -0.277 ± 1.1. For KGFDRMMGVH, the amyloid nucleation score was “inactive”. For KGFFFCRTYVSSFWTKIGIF, the amyloid nucleation score was “inactive”. With KGFNSALLMWVLYINKQ the amyloid nucleation score was “inactive”. For KGLMVNRELMGSWSRPGCSY, the amyloid nucleation score was “inactive”. For KGLVYSELNYYLLSWY, the amyloid nucleation score was “inactive”. With KGPRSGLVYGSSDHVFLA the amyloid nucleation score was “inactive”. For KGQDCNVLNSNYESSIVGDL, the amyloid nucleation score was “inactive”. With KGSSC the amyloid nucleation score was “inactive”. For KGSSSSIDTIFLYRGYFSIA, the amyloid nucleation score was “inactive”. With KGVKYMDGH the amyloid nucleation score was 0.303 ± 0.2. In the case of KGYSKCEDPMLECYYCTPVN, the amyloid nucleation score is reported as “inactive”. With KHILFE the amyloid nucleation score was “inactive”. For KHRWVQLLWCWYFTGSQYRI, the amyloid nucleation score was “inactive”. For KHSDL, the amyloid nucleation score was “inactive”. In the case of KHVMLCCNFRKLHSATHKRT, the amyloid nucleation score is reported as “inactive”. Work on KICWYELNLDNSLVLLGRRY yielded an amyloid nucleation score of 1.78 ± 0.084. For KILQDKKMFRGFRNGRRAGI, the amyloid nucleation score was “inactive”. For KIVFSKSLGFLVFVMRYNQW, the amyloid nucleation score was “inactive”. In the case of KIYDVFSRFKYRMQSVYKQA, the amyloid nucleation score is reported as “inactive”. In the case of KIYQYPVGRLGNCSGLHVWT, the amyloid nucleation score is reported as “inactive”. In the case of KKASVLSHVTYNRMITAWNI, the amyloid nucleation score is reported as “inactive”. With KKGGVVINVSTNRIRTLTCP the amyloid nucleation score was “inactive”. With KKKAGLGRDWYWTVFLMVLS the amyloid nucleation score was “inactive”. For KKRSMD, the amyloid nucleation score was “inactive”. For KKVNDML, the amyloid nucleation score was “inactive”. For KLAVFYFVVLVFRGERISSC, the amyloid nucleation score was “inactive”. KLILKYCIRCQNGYDSARMS gave an amyloid nucleation score of -0.291 ± 0.5. For KLKPMPNWSRLSRDWVLCCS, the amyloid nucleation score was “inactive”. For KLPSEISKNYT, the amyloid nucleation score was “inactive”. For KLQNCVKTDLHA, the amyloid nucleation score was “inactive”. In the case of KLSGTLFFGSKGFVFPPYAF, the amyloid nucleation score is reported as “inactive”. For KLTPRFICVMCTCLIRL, the amyloid nucleation score was “inactive”. In the case of KLWKWNTGNSVVVLGLMSGV, the amyloid nucleation score is reported as “inactive”. With KLYELDAVMMAWVIMY the amyloid nucleation score was “inactive”. In the case of KMDKFPV, the amyloid nucleation score is reported as 0.391 ± 0.34. In the case of KMRFLIALNVTTWGPKLLCG, the amyloid nucleation score is reported as “inactive”. In the case of KMRRVLLSLSVYMNCKSMVR, the amyloid nucleation score is reported as “inactive”. In the case of KMVGVKK, the amyloid nucleation score is reported as “inactive”. In the case of KNMHNPDRY, the amyloid nucleation score is reported as “inactive”. KNTISCPCWYINRCLVYNNI showed an amyloid nucleation score of 0.97 ± 0.17. With KNTVSYSATLGKVSMSERRR the amyloid nucleation score was “inactive”. With KPASAGLVINAVGSGHSEMW the amyloid nucleation score was “inactive”. KPCVTFSHSAIRISVTWSTN gave an amyloid nucleation score of -0.079 ± 0.38. KPLSRSLRHSLCNRTAMIRF showed an amyloid nucleation score of 0.672 ± 0.32. In the case of KPSFDPFKN, the amyloid nucleation score is reported as “inactive”. With KPTIDIKCFCSWVYLKVLRG the amyloid nucleation score was “inactive”. KPVLVVVSNLIPWSYPE gave an amyloid nucleation score of 2.25 ± 0.085. With KQLLAKTALAYEAIRPPIPI the amyloid nucleation score was “inactive”. In the case of KQSMRQSYSVPPEEVDKQGR, the amyloid nucleation score is reported as “inactive”. In the case of KQSYCVWESNYRTMYLNVCR, the amyloid nucleation score is reported as “inactive”. In the case of KQYLDLVAFIADGYRVSGDE, the amyloid nucleation score is reported as “inactive”. In the case of KRCPWVRNKSVSYLTSKYKL, the amyloid nucleation score is reported as “inactive”. With KRFGFVNFNCYDLYIKFEIM the amyloid nucleation score was 1.28 ± 0.13. For KRLIVVIFKQWPARGCTTHC, the amyloid nucleation score was “inactive”. For KRLVMWPRLRSRYWHKRAEQ, the amyloid nucleation score was “inactive”. In the case of KRSDVYVGKNCSEDMRFSNL, the amyloid nucleation score is reported as “inactive”. With KRSFGRVIRDIDEYRMVRVV the amyloid nucleation score was “inactive”. Work on KRVKSPNILEMVNYAQ yielded an amyloid nucleation score of -0.487 ± 0.9. With KRWEPMACPDSNRDKLKECV the amyloid nucleation score was “inactive”. For KRWIAHASWSSTGTWFWSGG, the amyloid nucleation score was “inactive”. With KRYAYAVVGGWVVGVRKHHG the amyloid nucleation score was “inactive”.
